Reference: patent US20100135951

Target: purified cIAP1, Q13490
Sequence (Q13490 whole entry): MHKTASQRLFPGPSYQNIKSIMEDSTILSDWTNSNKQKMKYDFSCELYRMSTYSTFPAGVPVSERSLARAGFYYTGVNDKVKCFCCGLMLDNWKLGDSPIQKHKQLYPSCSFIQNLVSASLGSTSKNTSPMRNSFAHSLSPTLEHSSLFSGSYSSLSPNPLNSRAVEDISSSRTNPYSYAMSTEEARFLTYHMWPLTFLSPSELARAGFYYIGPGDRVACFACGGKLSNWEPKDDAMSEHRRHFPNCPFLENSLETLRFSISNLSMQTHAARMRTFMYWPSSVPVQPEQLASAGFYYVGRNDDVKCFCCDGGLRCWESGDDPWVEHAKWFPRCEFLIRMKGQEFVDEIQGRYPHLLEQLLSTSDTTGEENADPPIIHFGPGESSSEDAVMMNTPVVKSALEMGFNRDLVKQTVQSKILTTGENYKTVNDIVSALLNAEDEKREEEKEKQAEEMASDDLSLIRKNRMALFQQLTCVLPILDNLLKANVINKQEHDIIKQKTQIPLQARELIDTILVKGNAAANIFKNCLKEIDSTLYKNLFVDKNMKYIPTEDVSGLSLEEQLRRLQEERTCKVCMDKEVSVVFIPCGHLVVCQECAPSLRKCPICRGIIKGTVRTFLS

B1: recombinant active human caspase-8 (protein)
chain: SESQTLDKVYQMKSKPRGYCLIINNHNFAKAREKVPKLHSIRDRNGTHLDAGALTTTFEELHFEIKPHDDCTVEQIYEILKIYQLMDHSNMDCFICCILSHGDKGIIYGTDGQEAPIYELTSQFTGLKCPSLAGKPKVFFIQACQGDNYQKGIPVETDSEEQPYLEMDLSSPQTRYIPDEADFLLGMATVNNCVSYRNPAEGTWYIQSLCQSLRERCPRGDDILTILTEVNYEVSNKDDKKNMGKQMPQPTFTLRKKLVFPSD
For B1, the “caspase-8 protease activity (fluorogenic substrate Ac-IETD-AMC)” value was “purified cIAP1 also suppressed caspase-8 protease activity completely”.
